From article doi:10.1101/2023.04.03.535362 (bioRxiv, 2023) come the findings set out here.

The data set “dynamic light scattering” deals with the molecule itself. Description: dynamic light scattering.
Another data set deals with T1, RAD52 FL (human, UniProt P43351 1-418).
T1 sequence: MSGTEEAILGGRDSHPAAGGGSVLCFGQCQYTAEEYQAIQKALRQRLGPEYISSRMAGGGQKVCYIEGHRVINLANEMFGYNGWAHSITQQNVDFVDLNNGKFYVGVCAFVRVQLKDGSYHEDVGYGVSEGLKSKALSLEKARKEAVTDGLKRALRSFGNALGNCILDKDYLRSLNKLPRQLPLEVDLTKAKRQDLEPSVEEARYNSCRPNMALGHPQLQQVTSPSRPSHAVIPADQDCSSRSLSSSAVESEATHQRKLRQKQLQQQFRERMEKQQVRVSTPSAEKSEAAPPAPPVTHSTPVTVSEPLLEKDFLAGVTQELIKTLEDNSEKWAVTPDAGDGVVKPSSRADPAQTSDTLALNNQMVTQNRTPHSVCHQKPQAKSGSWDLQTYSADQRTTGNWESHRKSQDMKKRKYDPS
Description: fluorescence polarization.

B1: Histidine-tagged human RAD52 N-terminal domain (1-212) (domain or fragment, UniProt P43351 1-212, looked up)
chain: MSGTEEAILGGRDSHPAAGGGSVLCFGQCQYTAEEYQAIQKALRQRLGPEYISSRMAGGGQKVCYIEGHRVINLANEMFGYNGWAHSITQQNVDFVDLNNGKFYVGVCAFVRVQLKDGSYHEDVGYGVSEGLKSKALSLEKARKEAVTDGLKRALRSFGNALGNCILDKDYLRSLNKLPRQLPLEVDLTKAKRQDLEPSVEEARYNSCRPNM
Turning to B1, the “stoichiometry N” value in “dynamic light scattering” is roughly 11.

B2: dT30 ssDNA (ssDNA)
DNA: TTTTTTTTTTTTTTTTTTTTTTTTTTTTTT
Take B2: binding with RAD52 FL was put at a Kd of 37.2 ± 0.4 nM.

Broadly, the stoichiometry N is the number of molecules, sites or subunits per partner or assembly. By Kd is commonly meant a measure of binding affinity in units of concentration.
